Results as given in patent publication US20240166765A1 (ICONIC THERAPEUTICS, published 2024).
Where two headings read alike, the source gives them in different places.

Tests used:
human TF ECD-His6 = biological target: T1, human TF ECD-His6 (human, UniProt P13726 33-251); assay: BLI (ForteBio Octet)
T1 construct: made in Expi293 cells; the entry holds the ECD with the C-terminal TG-His6; also called TF-His; hTF

cynomolgus TF ECD-His6 = biological target: T2, cynomolgus TF ECD-His6 (cynomolgus monkey (Macaca fascicularis)); assay: BLI (ForteBio Octet)
T2 construct: made in Expi293 cells; also called TF-His; cTF
T2 chain: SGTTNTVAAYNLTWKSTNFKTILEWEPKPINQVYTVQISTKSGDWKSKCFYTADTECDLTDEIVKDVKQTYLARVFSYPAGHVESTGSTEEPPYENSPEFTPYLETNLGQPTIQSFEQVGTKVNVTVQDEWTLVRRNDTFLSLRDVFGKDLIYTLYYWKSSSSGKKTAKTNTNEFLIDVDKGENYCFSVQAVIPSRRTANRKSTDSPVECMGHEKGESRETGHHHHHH

pig TF-His [1] = biological target: T3, pig TF-His (pig (Sus scrofa)); assay: SPR (Biacore), antibody captured by anti-human IgG
T3 construct: also called pig TF ECD-His; pTF
T3 chain: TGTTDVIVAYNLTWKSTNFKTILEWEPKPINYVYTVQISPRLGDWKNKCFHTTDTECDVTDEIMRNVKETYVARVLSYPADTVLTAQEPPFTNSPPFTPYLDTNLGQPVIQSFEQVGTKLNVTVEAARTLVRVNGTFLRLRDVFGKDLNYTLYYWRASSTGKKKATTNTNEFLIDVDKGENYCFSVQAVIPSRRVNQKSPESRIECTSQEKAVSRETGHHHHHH

rabbit TF-His [2] = biological target: T4, rabbit TF-His (rabbit (Oryctolagus cuniculus), UniProt P24055 33-250); assay: SPR (Biacore), antibody captured by anti-human IgG
T4 construct: also called rabbit TF ECD-His
T4 sequence (P24055 other isoform, or with tags, fused parts or gaps): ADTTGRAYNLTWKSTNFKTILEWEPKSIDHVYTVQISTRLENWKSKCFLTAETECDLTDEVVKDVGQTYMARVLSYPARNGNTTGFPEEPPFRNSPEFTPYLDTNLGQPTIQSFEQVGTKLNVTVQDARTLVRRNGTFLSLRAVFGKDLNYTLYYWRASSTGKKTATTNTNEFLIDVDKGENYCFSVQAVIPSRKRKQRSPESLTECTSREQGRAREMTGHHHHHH

pig TF-His [3] = biological target: T5, pig TF-His (pig (Sus scrofa)); assay: SPR (Biacore), antibody captured by anti-human IgG on CM5 chip, pig TF-His in solution
T5 construct: also called pig TF ECD-His; pTF
T5 chain: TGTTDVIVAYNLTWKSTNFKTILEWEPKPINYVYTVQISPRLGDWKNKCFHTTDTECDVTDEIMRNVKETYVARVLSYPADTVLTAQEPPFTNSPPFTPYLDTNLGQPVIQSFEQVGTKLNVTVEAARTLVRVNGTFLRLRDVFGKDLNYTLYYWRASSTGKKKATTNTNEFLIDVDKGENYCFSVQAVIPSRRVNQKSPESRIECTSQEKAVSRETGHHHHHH

rabbit TF-His [4] = biological target: T6, rabbit TF-His (rabbit (Oryctolagus cuniculus), UniProt P24055 33-250); assay: SPR (Biacore), antibody captured by anti-human IgG on CM5 chip, rabbit TF-His in solution
T6 construct: also called rabbit TF ECD-His
T6 sequence (P24055 other isoform, or with tags, fused parts or gaps): as the sequence (P24055 other isoform, or with tags, fused parts or gaps) above

[5] = biological target: T7, human Tissue Factor (hTF), endogenously expressed on human TF-positive cells (human, UniProt P13726 33-295); assay: cell-based or functional assay
[6] = biological target: T8, pig TF ECD-His (pig TF-His) protein (pig (Sus scrofa)); assay: Biacore, antibody captured by anti-human IgG on CM5 chip, pig TF-His as analyte
T8 construct: Extracellular domain with a C-terminal TG-His6 tag, used as analyte in Biacore; also called pTF
T8 chain: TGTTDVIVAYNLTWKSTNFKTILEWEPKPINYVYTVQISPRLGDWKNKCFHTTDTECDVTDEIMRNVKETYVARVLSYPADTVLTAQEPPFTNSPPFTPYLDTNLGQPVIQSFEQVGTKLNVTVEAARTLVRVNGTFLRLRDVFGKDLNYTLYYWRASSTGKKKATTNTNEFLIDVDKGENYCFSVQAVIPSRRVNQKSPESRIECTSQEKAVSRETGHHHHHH

[7] = biological target: T7, human Tissue Factor (hTF), endogenously …; assay: flow cytometry competition on A431 cells, 100 nM unlabelled antibody, competitor 20 nM 25A-Alexa488
[8] = biological target: T7, human Tissue Factor (hTF), endogenously …; assay: flow cytometry competition on A431 cells, 100 nM unlabelled antibody, competitor 20 nM 43Ea-Alexa488
rTF (rat TF) [9] = biological target: T9, rTF (rat TF) (rat, UniProt P42533 29-252); assay: live cell staining, flow cytometry
T9 construct: Expressed on the surface of transfected HEK293 cells

h1-107_r = biological target: T10, h1-107_r (human/rat chimera); assay: live cell staining, flow cytometry
T10 construct: on HEK293 cells
T10 chain: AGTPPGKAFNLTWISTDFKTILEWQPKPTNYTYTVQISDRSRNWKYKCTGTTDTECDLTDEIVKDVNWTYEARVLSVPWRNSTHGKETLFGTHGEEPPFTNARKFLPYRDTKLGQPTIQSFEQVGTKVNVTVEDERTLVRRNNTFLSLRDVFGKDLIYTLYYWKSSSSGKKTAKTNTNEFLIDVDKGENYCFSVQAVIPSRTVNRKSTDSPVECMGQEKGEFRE

h1-77_r = biological target: T11, h1-77_r (human/rat chimera); assay: live cell staining, flow cytometry
T11 construct: Human TF with ECD residues 1-77 replaced by the rat segment; on HEK293 cells

h78-107_r.v2 = biological target: T12, h78-107_r.v2 (human/rat chimera); assay: live cell staining, flow cytometry
T12 construct: on HEK293 cells

h159-219_r = biological target: T13, h159-219_r (human/rat chimera); assay: live cell staining, flow cytometry
T13 construct: on HEK293 cells

hTF = biological target: T14, hTF (human, UniProt P13726 33-251); assay: live cell staining, flow cytometry
T14 construct: also called human TF; human Tissue Factor

rTF (rat TF) [10] = biological target: T9, rTF (rat TF); assay: live cell staining, flow cytometry; remark: listed apart in the source
r141-194_h = biological target: T15, r141-194_h (rat/human chimera, UniProt P42533 29-252); assay: live cell staining, flow cytometry
T15 construct: on HEK293 cells

hTF_N171H_T197K = biological target: T16, hTF_N171H_T197K (human, UniProt P13726 33-251); assay: live cell staining, flow cytometry
T16 construct: on HEK293 cells
T16 chain: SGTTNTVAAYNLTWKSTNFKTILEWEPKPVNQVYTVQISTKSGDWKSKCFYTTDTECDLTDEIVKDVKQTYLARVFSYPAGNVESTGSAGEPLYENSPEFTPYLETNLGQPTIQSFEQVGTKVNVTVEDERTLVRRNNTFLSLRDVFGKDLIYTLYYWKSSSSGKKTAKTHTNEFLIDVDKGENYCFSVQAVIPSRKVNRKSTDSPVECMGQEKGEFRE

B1: 1G (antibody, human IgG1, V domains shown)
VH: EVQLLESGGGLVQPGGSLRLSCAASGFTFSSYAMAWVRQAPGKGLEWVSAISGSGGLTYYADSVKGRFTISRDNSKNTLYLQMNSLRAEDTAVYYCAKAPYGYYMDVWGKGTTVTVSS
VL: not shown
notes: human IgG1
Kd (human TF ECD-His6): 2.2 nM | Kd (cynomolgus TF ECD-His6): 2.7 nM | binding result (pig TF-His [1]): no binding (tested: TF-His titration from 100 nM) | binding result (rabbit TF-His [2]): no binding (tested: TF-His titration from 100 nM)

B2: 1G (antibody, human IgG1, V domains shown)
VH: EVQLLESGGGLVQPGGSLRLSCAASGFTFSSYAMAWVRQAPGKGLEWVSAISGSGGLTYYADSVKGRFTISRDNSKNTLYLQMNSLRAEDTAVYYCAKAPYGYYMDVWGKGTTVTVSS
VL: not shown
notes: Human IgG1; also called antibody 1G
binding result (pig TF-His [3]): no binding | binding result (rabbit TF-His [4]): no binding

B3: anti-TF antibody 1G (antibody, human IgG1, V domains shown)
VH: EVQLLESGGGLVQPGGSLRLSCAASGFTFSSYAMAWVRQAPGKGLEWVSAISGSGGLTYYADSVKGRFTISRDNSKNTLYLQMNSLRAEDTAVYYCAKAPYGYYMDVWGKGTTVTVSS
VL: not shown
notes: Human IgG1
% GM-CSF, 2.56 nM antibody, MDA-MB-231 cells + FVIIa [5]: 34% | % GM-CSF, 6.4 nM antibody, MDA-MB-231 cells + FVIIa [5]: 9% | % GM-CSF, 16 nM antibody, MDA-MB-231 cells + FVIIa [5]: 7% | % GM-CSF, 40 nM antibody, MDA-MB-231 cells + FVIIa [5]: 7% | % GM-CSF, 100 nM antibody, MDA-MB-231 cells + FVIIa [5]: 7% | binding result [6]: no binding | % 25A binding [7]: 75% | % 43Ea binding [8]: 58%

B4: 54E (antibody, human IgG1, V domains shown)
VH: QVQLVQSGAEVKKPGASVKVSCKASGYTFANYYMHWVRQAPGQGLEWMGIINPSGGITVYAQKFQGRVTMTRDTSTSTVYMELSSLRSEDTAVYYCARGGSKVAALAFDIWGQGTMVTVSS
VL: DIQMTQSPSSLSASVGDRVTITCQASQDISNSLNWYQQKPGKAPKLLIYDASNLETGVPSRFSGSRSGTDFTFTISSLQPEDIATYYCQQYNFHPLTFGGGTKVEIK
notes: Human IgG1
Percent antibody binding to TF construct relative to hTF (rTF (rat TF) [9]): 0% | Percent antibody binding to TF construct relative to hTF (h1-107_r): 0% | Percent antibody binding to TF construct relative to hTF (h1-77_r): 0% | Percent antibody binding to TF construct relative to hTF (h78-107_r.v2): 62% | Percent antibody binding to TF construct relative to hTF (h159-219_r): 142% | Percent antibody binding to TF construct relative to hTF (hTF): 100% | Percent antibody binding to TF construct relative to hTF (rTF (rat TF) [10]): 0% | Percent antibody binding to TF construct relative to hTF (r141-194_h): 0% | Percent antibody binding to TF construct relative to hTF (hTF_N171H_T197K): 89%
